Measurements: the supplement of paper PMC10567573

B1: PDLIM4 (parent)
chain: FLDERLYCESHAKARVKPPEGYDV

Variants of: B1
Assay: protein stability index of a GFP-peptide fusion (GPS, HEK-293T) (PSI 1-6); higher = more stable
Settings: c terminus: a fixed tail appended
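Also: lentivirally expressed fusions sorted by FACS into six bins by GFP to DsRed ratio, PSI derived from sequencing read proportions per bin multiplied by bin number.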

Variant | protein stability index
FLDERLDCESHAKARVKPPEGYDV [Y7D] | 4.71
FLDERLNCESHAKARVKPPEGYDV [Y7N] | 4.26
FLDERLICESHAKARVKPPEGYDV [Y7I] | 3.6
FLDERLFCESHAKARVKPPEGYDV [Y7F] | 2.79
FLDERLGCESHAKARVKPPEGYDV [Y7G] | 2.04
FLDERLLCESHAKARVKPPEGYDV [Y7L] | 3.18
FLDERLVCESHAKARVKPPEGYDV [Y7V] | 3.85
FLDERLTCESHAKARVKPPEGYDV [Y7T] | 5.4
FLDERLECESHAKARVKPPEGYDV [Y7E] | 4.06
FLDERLCCESHAKARVKPPEGYDV [Y7C] | 3.66
FLDERLSCESHAKARVKPPEGYDV [Y7S] | 3.89
FLDERLQCESHAKARVKPPEGYDV [Y7Q] | 4.26
FLDERLHCESHAKARVKPPEGYDV [Y7H] | 4.05
FLDERLMCESHAKARVKPPEGYDV [Y7M] | 3.6
FLDERLPCESHAKARVKPPEGYDV [Y7P] | 4.5
FLDERLACESHAKARVKPPEGYDV [Y7A] | 2.63
FLDERLKCESHAKARVKPPEGYDV [Y7K] | 4.06
FLDERLRCESHAKARVKPPEGYDV [Y7R] | 3.99
FLDERDYCESHAKARVKPPEGYDV [L6D] | 4.54
FLDERFYCESHAKARVKPPEGYDV [L6F] | 3.03
FLDEREYCESHAKARVKPPEGYDV [L6E] | 3.09
FLDERVYCESHAKARVKPPEGYDV [L6V] | 1.59
FLDERHYCESHAKARVKPPEGYDV [L6H] | 1.72
FLDERSYCESHAKARVKPPEGYDV [L6S] | 2.47

Variant | protein stability index
FLDERPYCESHAKARVKPPEGYDV [L6P] | 1.7
FLDERMYCESHAKARVKPPEGYDV [L6M] | 2.87
FLDERNYCESHAKARVKPPEGYDV [L6N] | 3.08
FLDERKYCESHAKARVKPPEGYDV [L6K] | 2.09
FLDERQYCESHAKARVKPPEGYDV [L6Q] | 2.5
FLDERIYCESHAKARVKPPEGYDV [L6I] | 1.97
FLDERGYCESHAKARVKPPEGYDV [L6G] | 3.42
FLDERTYCESHAKARVKPPEGYDV [L6T] | 2.55
FLDERRYCESHAKARVKPPEGYDV [L6R] | 1.45
FDDERLYCESHAKARVKPPEGYDV [L2D] | 4.28
FWDERLYCESHAKARVKPPEGYDV [L2W] | 2.47
FVDERLYCESHAKARVKPPEGYDV [L2V] | 2.42
FPDERLYCESHAKARVKPPEGYDV [L2P] | 2.98
FMDERLYCESHAKARVKPPEGYDV [L2M] | 1.67
FFDERLYCESHAKARVKPPEGYDV [L2F] | 3.46
FIDERLYCESHAKARVKPPEGYDV [L2I] | 1.38
FSDERLYCESHAKARVKPPEGYDV [L2S] | 3.37
FADERLYCESHAKARVKPPEGYDV [L2A] | 1.81
FQDERLYCESHAKARVKPPEGYDV [L2Q] | 2.12
FRDERLYCESHAKARVKPPEGYDV [L2R] | 2.96
FKDERLYCESHAKARVKPPEGYDV [L2K] | 3.99
FTDERLYCESHAKARVKPPEGYDV [L2T] | 2.54
FCDERLYCESHAKARVKPPEGYDV [L2C] | 1.96
FGDERLYCESHAKARVKPPEGYDV [L2G] | 3.4

Variant | protein stability index
FNDERLYCESHAKARVKPPEGYDV [L2N] | 3.48
FHDERLYCESHAKARVKPPEGYDV [L2H] | 2.24
FYDERLYCESHAKARVKPPEGYDV [L2Y] | 3.53
LLDERLYCESHAKARVKPPEGYDV [F1L] | 3.89
TLDERLYCESHAKARVKPPEGYDV [F1T] | 4.72
NLDERLYCESHAKARVKPPEGYDV [F1N] | 4.21
ELDERLYCESHAKARVKPPEGYDV [F1E] | 4.68
ILDERLYCESHAKARVKPPEGYDV [F1I] | 4.27
QLDERLYCESHAKARVKPPEGYDV [F1Q] | 4.58
KLDERLYCESHAKARVKPPEGYDV [F1K] | 4.43
PLDERLYCESHAKARVKPPEGYDV [F1P] | 5
DLDERLYCESHAKARVKPPEGYDV [F1D] | 4.34
SLDERLYCESHAKARVKPPEGYDV [F1S] | 4.63
MLDERLYCESHAKARVKPPEGYDV [F1M] | 4.29
YLDERLYCESHAKARVKPPEGYDV [F1Y] | 1.3
HLDERLYCESHAKARVKPPEGYDV [F1H] | 4.26
VLDERLYCESHAKARVKPPEGYDV [F1V] | 3.92
CLDERLYCESHAKARVKPPEGYDV [F1C] | 3.43
WLDERLYCESHAKARVKPPEGYDV [F1W] | 2.5
RLDERLYCESHAKARVKPPEGYDV [F1R] | 4.28
ALDERLYCESHAKARVKPPEGYDV [F1A] | 4.23
FLDRRLYCESHAKARVKPPEGYDV [E4R] | 3.33
FLDVRLYCESHAKARVKPPEGYDV [E4V] | 2.06
FLDYRLYCESHAKARVKPPEGYDV [E4Y] | 2.02

Variant | protein stability index
FLDCRLYCESHAKARVKPPEGYDV [E4C] | 3.33
FLDLRLYCESHAKARVKPPEGYDV [E4L] | 2.34
FLDDRLYCESHAKARVKPPEGYDV [E4D] | 1.71
FLDSRLYCESHAKARVKPPEGYDV [E4S] | 5.15
FLDEALYCESHAKARVKPPEGYDV [R5A] | 1.86
FLDEELYCESHAKARVKPPEGYDV [R5E] | 2.42
FLDEILYCESHAKARVKPPEGYDV [R5I] | 2.24
FLDEMLYCESHAKARVKPPEGYDV [R5M] | 2.33
FLDELLYCESHAKARVKPPEGYDV [R5L] | 1.98
FLDEYLYCESHAKARVKPPEGYDV [R5Y] | 1.42
FLDETLYCESHAKARVKPPEGYDV [R5T] | 1.3
FLDEWLYCESHAKARVKPPEGYDV [R5W] | 3.09
FLDENLYCESHAKARVKPPEGYDV [R5N] | 1.49
FLDEDLYCESHAKARVKPPEGYDV [R5D] | 2.11
FLDEKLYCESHAKARVKPPEGYDV [R5K] | 1.66
FLDEFLYCESHAKARVKPPEGYDV [R5F] | 1.52
FLDEVLYCESHAKARVKPPEGYDV [R5V] | 2.35
FLDESLYCESHAKARVKPPEGYDV [R5S] | 2.37
FLDEPLYCESHAKARVKPPEGYDV [R5P] | 2.98
FLDEGLYCESHAKARVKPPEGYDV [R5G] | 2.47
FLEERLYCESHAKARVKPPEGYDV [D3E] | 1.94
FLFERLYCESHAKARVKPPEGYDV [D3F] | 2.66
